{
  "source": "patent US10434074B2",
  "about": "“Peptide and small molecule agonists of EPHA and uses thereof” (CASE WESTERN RESERVE UNIVERSITY, priority 2004, dated 2019)",
  "key": {"EphA1": {"target": "T1, EphA1 (Homo sapiens, UniProt P21709)", "T1 construct": "expressed in transfected cells; host or cells: DU145 cells, retroviral infection", "T1 sequence (P21709 26-976)": "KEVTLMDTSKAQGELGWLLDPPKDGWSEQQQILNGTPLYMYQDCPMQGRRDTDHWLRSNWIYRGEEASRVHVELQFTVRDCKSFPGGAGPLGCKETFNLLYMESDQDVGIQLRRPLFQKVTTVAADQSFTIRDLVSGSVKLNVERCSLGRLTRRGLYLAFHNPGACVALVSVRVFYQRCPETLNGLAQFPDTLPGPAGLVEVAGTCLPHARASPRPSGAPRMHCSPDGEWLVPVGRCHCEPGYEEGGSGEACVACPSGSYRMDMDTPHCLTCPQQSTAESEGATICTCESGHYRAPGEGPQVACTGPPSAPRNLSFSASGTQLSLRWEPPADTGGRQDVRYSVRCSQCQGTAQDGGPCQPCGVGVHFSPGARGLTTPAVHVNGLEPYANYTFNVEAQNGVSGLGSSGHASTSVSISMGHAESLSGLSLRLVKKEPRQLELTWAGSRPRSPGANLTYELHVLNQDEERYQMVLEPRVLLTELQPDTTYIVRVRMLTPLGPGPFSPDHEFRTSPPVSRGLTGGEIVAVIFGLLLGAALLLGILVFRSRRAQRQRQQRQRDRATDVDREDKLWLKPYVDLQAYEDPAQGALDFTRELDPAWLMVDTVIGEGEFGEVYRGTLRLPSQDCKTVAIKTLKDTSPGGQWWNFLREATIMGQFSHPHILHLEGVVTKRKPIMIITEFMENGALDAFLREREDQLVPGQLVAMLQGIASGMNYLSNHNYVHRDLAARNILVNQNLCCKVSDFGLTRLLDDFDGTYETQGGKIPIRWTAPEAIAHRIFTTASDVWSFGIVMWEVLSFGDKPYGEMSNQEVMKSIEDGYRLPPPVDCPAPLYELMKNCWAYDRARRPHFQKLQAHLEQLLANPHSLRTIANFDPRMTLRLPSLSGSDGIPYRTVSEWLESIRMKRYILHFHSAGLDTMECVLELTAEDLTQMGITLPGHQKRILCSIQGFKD", "experiment": "Proliferation of DU145 cells expressing EphA1", "assay_type": "cell-based", "conditions": "10% serum 7 days or 0.5% serum 18 days", "description": "FIGS. 49(A-B) illustrate expression of EphA1 in DU145 cells infected with vector control (control) and EphA1 expression retrovirus. FIG. 49B illustrates that about 2,000 cells were plated on 12-well plates in the regular culture medium (10% serum) and low serum medium (0.5%). Cell were cultured for 7 days (10% serum) or 18 days (0.5%). FIG. 49B illustrates that proliferation of prostatic epithelial cells expressing EphA1 and activated with Ephrin-A1 is inhibited.\nDU145 human prostatic epithelial cells were infected with retrovirus expressing EphA1. FIG. 49A illustrates expression of EphA1 in DU145 cells infected with vector control (control) and EphA1 expression retrovirus. FIG. 49B illustrates that about 2,000 cells were plated on 12-well plates in the regular culture medium (10% serum) and low serum medium (0.5%). Cell were cultured for 7 days (10% serum) or 18 days (0.5%). FIG. 49B illustrates that proliferation of prostatic epithelial cells expressing EphA1 and activated with Ephrin-A1 is inhibited."}, "Akt and ERK": {"system": "Akt and ERK", "experiment": "Akt and ERK activities in DU145 cells expressing WT or dominant negative EphA2", "assay_type": "cell-based, human", "conditions": "DU145 with dominant negative EphA2", "excerpt": "FIGS. 46(A-D) illustrate A) EphA2 is overexpressed in osseous but not lymph node metastases of human prostate cancer specimens obtained from rapid autopsy. […] DU145 cells were infected with a retroviral vector expressing wild type (WT) or a dominant negative mutant EphA2 where the entire cytoplasmic tail was replaced with GFP. An antibody against the ectodomain of EphA2 was used to determine the expression of endogenous (vector control), WT- and DN-EphA2. D) Upregulation of EphA2 by Ras but not Myc oncogene in NRP152 normal rat prostate epithelial cells.\nWe observed that EphA2 is overexpressed in osseous but not lymph node metastases of human prostate cancer specimens obtained from rapid autopsy (FIG. 46A). […] DU145 cells were infected with a retroviral vector expressing wild type (WT) or a dominant negative mutant EphA2 where the entire cytoplasmic tail was replaced with GFP. An antibody against the ectodomain of EphA2 was used to determine the expression of endogenous (vector control), WT- and DN-EphA2 (FIG. 46C). We further observed upregulation of EphA2 by Ras but not Myc oncogene in NRP152 normal rat prostate epithelial cells (FIG. 46D)."}, "[1]": {"system": "H125, H1975 and SKMES cells", "experiment": "ERK and AKT phosphorylation in non-small cell lung cancer cells", "assay_type": "cell-based, human", "conditions": "2 ìg/ml, 10 and 30 minutes", "excerpt": "(§1) FIGS. 47(A-C) illustrate A) Expression of β-gal in EphA2 KO mouse lung. Frozen sections were fixed and stained with X-gal and followed by counterstaining with nuclear Fast-Red. B) Expression of EphA2 in the lung from wild-type mice. Lung frozen sections were stained with goat polyclonal antibodies that recognize the ectodomain of EphA2 followed by detection with donkey anti-goat IgG conjugated with FITC. C) EphA kinase activation by ephrin-A1 in H125, H1975 and SKMES human non-small cell lung cancer cells. Cells were stimulated with 2 ìg/ml of ephrin-A1-Fc for 10 and 30 minutes.\nas §1, with “FIG. 47A illustrates the expression” for “FIGS. 47(A-C) illustrate A) Expression”, “knockout” for “KO”, “FIG. 47B illustrates expression” for “B) Expression”, “FIG. 47C illustrates” for “C)”"}, "[2]": {"system": "integrin-mediated cell adhesion", "experiment": "Integrin-mediated cell adhesion to fibronectin", "assay_type": "cell-based"}},
  "data": [
    {"molecule": "ephrin-A1-Fc: ephrin-A1 dimerized by fusion to the heavy chain of human IgG1 (protein, left off: a dimerising Fc or GST, ephrin-A1 dimerized by fusion to the heavy chain of human IgG1) DRHTVFWNSSNPKFRNEDYTIHVQLNDYVDIICPHYEDHSVADAAMEQYILYLVEHEEYQLCQPQSKDQVRWQCNRPSAKHGPEKLSEKFQRFTPFTLGKEFKEGHSYYYISKPIHQHEDRCLRLKVTVSGKITHSPQAHDNPQEKRLAADDPEVRVLHSIGHS", "values": [
      {"measurement": "proliferation of cells expressing EphA1", "setting": "EphA1", "value": "is inhibited"},
      {"measurement": "Akt and ERK activities", "setting": "Akt and ERK", "value": "abolished the inhibitory effects"},
      {"measurement": "ERK and AKT phosphorylation", "setting": "[1]", "value": "inhibits ERK and AKT phosphorylation"},
      {"measurement": "effect of ligand clustering on inhibition of cell adhesion to fibronectin", "setting": "[2]", "value": "did not increase the inhibitory effects"}
    ]}
  ]
}
